From US20210284749A1 (ABL BIO, published 2021)
Numbering of substitutions follows the chain as printed.

B1: anti-BCMA IgG antibody 5A6 (antibody, V domains shown)
VH: EVQLLESGGGLVQPGGSLRLSCAASGFTFSNYGVHWVRQAPGKGLEWVSYISYSGGTYYNPSLKSRFTISRDNSKNTLYLQMNSLRAEDTAVYYCARDSDDFGFDYWGQGTLVTVSS
VL: QSVLTQPPSASGTPGQRVTISCQGDSLRSYYVNWYQQLPGTAPKLLIYDHSKRPTGVPDRFSGSKSGTSASLAISGLRSEDEADYYCQSYDSSTVVFGGGTKLTVLG
notes: also called 5A6 WT; 5A6 antibody
B2: anti-BCMA IgG antibody 5D5 (antibody, V domains shown)
VH: EVQLLESGGGLVQPGGSLRLSCAASGFTFSDYGLSWVRQAPGKGLEWVSLIDSSGSSTFYADSVKGRFTISRDNSKNTLYLQMNSLRAEDTAVYYCAKEHGLFDSWGQGTLVTVSS
VL: EIVLTQSPGTLSLSPGERATLSCKASQDIDDDINWYQQKPGQAPRLLIYDASLRATGIPDRFSGSGSGTDFTLTISRLEPEDFAVYYCQQSLRTPITFGQGTKLEIKR
notes: also called 5D5 WT; 5D5 antibody

How the values were obtained:
[1] = target: T1, mouse BCMA (1-49) fused to the Fc region of human IgG1 (mouse; human, UniProt O88472 1-49); test: ELISA on 100 ng coated mouse BCMA, antibody titrated, anti-human Fab HRP, absorbance 450 nm
T1 construct: Sino Biological Inc. 50076-M01H; also called 50076-M01H; not shown: Fc region of human IgG1
T1 chain: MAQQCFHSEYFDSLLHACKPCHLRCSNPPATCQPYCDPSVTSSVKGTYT
Procedure: 100 ng of human, monkey, mouse, and rat BCMA antigens prepared in Example 1.1 were coated on the bottom of the plate, and then coated with 3% BSA to block nonspecific binding. Using the selected anti-BCMA IgG antibodies as primary antibodies, and the anti-human Fab HRP (1:20000 dilution) as a secondary antibody, ELISA assay was performed as described in Example 1.3.
Absorbancies at 450 nm measured with a microplate reader are shown in FIG. 3, and half maximal effective concentrations (EC₅₀) (nM) are shown in Table 9.

[2] = target: T2, human BCMA expressed on cell surface (H929, OPM-2, CHOK1-hBCMA cells) (human, UniProt Q02223 1-184); test: FACS on OPM-2 cells, 10 µg/ml antibody, anti-human Fc-FITC; open histogram shifted right of the filled control
T2 construct: also called cell-surface BCMA; BCMA on cell surface
T2 sequence: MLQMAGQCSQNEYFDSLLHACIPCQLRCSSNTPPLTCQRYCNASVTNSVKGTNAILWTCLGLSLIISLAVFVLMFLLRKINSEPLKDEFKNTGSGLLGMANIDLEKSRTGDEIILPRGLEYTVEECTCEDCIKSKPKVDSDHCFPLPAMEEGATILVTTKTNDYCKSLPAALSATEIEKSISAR
Procedure: Multiple myeloma cancer cells H929 (ATCC, CRL9068™) and OPM-2 cell line (DSMZ, ACC 50), which are known to express BCMA, were prepared, and human BCMA-overexpressed CHOK1-hBCMA cell line (constructed by ABIBio) were prepared.
10 μg/ml of the seven IgG antibodies (B58, 5A6, 5D5, 5B5, 1H, 2G, and 5G) purified in Example 1.4 was added to the prepared cells, incubated at 4° C. for 1 hour, and then washed two times with a PBS buffer solution. The anti-human Fc-FITC was diluted in 1:400, incubated at 4° C. for 1 hour, and then washed with a PBS buffer solution. These processes were repeated. In FIGS. 2A and 2B, MFI indicates mean fluorescence intensity.

[3] = target: T3, monkey (Rhesus) BCMA (1-53) fused to the Fc region of human IgG1 (monkey (Rhesus); human, UniProt Q02223 1-54); test: BLI (Octet), monkey BCMA
T3 construct: Sino Biological Inc. 90103-C02H; also called monkey BCMA; Monkey BCMA (1-53); not shown: Fc region of human IgG1

[4] = target: T4, human monomeric BCMA antigen (human, UniProt Q02223 5-54, limits assumed); test: SPR (Biacore T200), antibody captured on protein A chip, antigen 6.25-100 nM
T4 construct: also called recombinant human BCMA antigens
T4 chain: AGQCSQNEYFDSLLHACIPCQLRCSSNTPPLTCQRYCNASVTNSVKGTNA
Procedure: In particular, the prepared antibodies were diluted with a 1×HPS-EP buffer (GE Healthcare, BR-1006-69). The target antigen-binding affinity analysis was performed using a Biacore T200 (GE Healthcare). The antibodies were flowed onto a protein A chip at a contact time of 60 seconds, a stabilization time of 30 seconds, and a flow rate of 30 μl/min until a capture level reached 128 RU (Response Unit), thereby preparing an antibody-captured protein A chip.
The antigen was sequentially diluted with a 1×HPS-EP buffer, by 2-fold each time, from 100 nM to 6.25 nM, thereby preparing a total of […] samples. The 1×HPS-EP buffer was used as a negative control group (blank).
The prepared antigen was flowed across the antibody-captured protein A chip at a flow rate of 30 μl/min for an association time of 60 seconds, followed by a disassociation phase for 180 seconds. Regeneration was performed with a 10-mM Glycine-HCL (pH 1.5) buffer (GE Healthcare, BR-1003-54) at a flow rate of 30 μl/min for a contact time of 30 seconds.

[5] = target: T5, rat BCMA (1-49) fused to the Fc region of human IgG1 (rat; human); test: ELISA, 100 ng coated antigen
T5 construct: Sino Biological Inc. 80156-R01H; also called 80156-R01H; not shown: Fc region of human IgG1
T5 chain: T1 chain with Q4R, H22R, T31P, V40M, K45R

[6] = target: T1, mouse BCMA (1-49) fused to the Fc …; test: ELISA, 100 ng coated antigen

Row | Binder | binding result [1] | MFI [2] | Kd [3] [nM] | koff [3] [s⁻¹] | kon [3] [M⁻¹ s⁻¹] | Kd [4] [nM] | koff [4] [s⁻¹] | kon [4] [M⁻¹ s⁻¹] | EC50 (read off the curve) [1] [µg/mL] | EC50 [5] [nM] | EC50 [6] [nM]
1 | B1 | no binding (tested: about 30 µg/ml) | 54.7 | 4.51 | 0.00163 | 361000 | 62.4 | 0.0249 | 399000 |  |  | 
2 | B2 |  | 21.8 | 0.346 | 0.000585 | 1.69e+06 | 22.8 | 0.0601 | 2.63e+06 | ~0.01 | 98 | 150
